In US20150086555A1:
Like-named read-outs stand apart in the source and are kept apart here.

Tests used:
Details in all cases: remark: other sources report otherwise
[1] = biological target: recombinant soluble homotrimeric HA of A/Hong Kong/1073/99 (H9N2) (Influenza A virus A/Hong Kong/1073/99 (H9N2)); assay: trimeric HA microarray, transfection supernatant set 1
[2] = biological target: T1, recombinant soluble homotrimeric HA of A/Hong Kong/2108/03 (H9N2) (Influenza A virus A/HK/2108/2003(H9N2)); assay: as above
[3] = biological target: T2, recombinant soluble homotrimeric HA of A/northern shoveler/California/HKWF115/07 (H6) (Influenza A virus A/northern shoveler/California/HKWF115/2007(H6N1)); assay: as above
[4] = biological target: T1, recombinant soluble homotrimeric HA of …; assay: trimeric HA microarray, transfection supernatant set 3
[5] = biological target: recombinant soluble homotrimeric HA of A/Anhui/1/05 (H5N1) (Influenza A virus A/Anhui/1/2005(H5N1))
[6] = biological target: recombinant soluble homotrimeric HA of A/California/4/09 (H1N1) (Influenza A virus A/California/04/2009(H1N1))
[7] = biological target: recombinant soluble homotrimeric HA of A/Egypt/3300-NAMRU3/08 (H5N1) (Influenza A virus A/Egypt/3300-NAMRU3/2008(H5N1))
[8] = biological target: recombinant soluble homotrimeric HA of A/Netherlands/219/03 (H7N7) (Influenza A virus A/Netherlands/219/03(H7N7))
[9] = biological target: recombinant soluble homotrimeric HA of A/South Carolina/1/18 (H1N1) (Influenza A virus A/South Carolina/1/18 (H1N1))
[10] = biological target: recombinant soluble homotrimeric HA of A/Vietnam/1203/04 (H5N1) (Influenza A virus A/VietNam/1203/2004(H5N1))
[11] = biological target: T3, recombinant soluble homotrimeric HA of A/Wisconsin/67/05 (H3N2) (Influenza A virus A/Wisconsin/67/2005(H3N2))
[12] = biological target: T4, recombinant soluble homotrimeric HA of A/duck/Yangzhou/02/05 (H8N4) (Influenza A virus A/duck/Yangzhou/02/2005(H8N4))
[13] = biological target: T2, recombinant soluble homotrimeric HA of …
[14] = biological target: T5, recombinant soluble homotrimeric HA of A/swine/Ontario/01911-2/99 (H4N6) (Influenza A virus A/Swine/Ontario/01911-2/99 (H4N6))
[15] = biological target: T3, recombinant soluble homotrimeric HA of …; assay: trimeric HA microarray, transfection supernatant set 1
[16] = biological target: T4, recombinant soluble homotrimeric HA of …; assay: as above
[17] = biological target: T5, recombinant soluble homotrimeric HA of …; assay: as above

B1: TCN-523 (5248_A17) (antibody, V domains shown)
VH: QVQLVQSGAEVKKPGSSVKVSCKASGGSFSNYAFSWVRQAPGQGLEWMGGTIPLLGTTNYAQKFQGRVTISADQFTSTAYMELGSLRSEDTAVYYCTRRKMTTAFDSWGQGTLVTVSS
VL: QPVLTQPPSASASLGASVTLTCTLSSAYSNYKVDWYQQRPGKGPRFVMRVGTGGIVGSKGDGIPDRFSVLGSGLNRYLTIKNIQEEDESDYHCGADHGSGSNFVSPYVFGGGTKLTVL
Which Trimeric HA Binding: RLU [1] does the source give for B1 here?
The Trimeric HA Binding: RLU was 21700 RLU.

What about the Trimeric HA Binding: RLU [2] of the same binder?
The Trimeric HA Binding: RLU was 41 RLU.

What about the Trimeric HA Binding: RLU [3] of the same binder?
Its Trimeric HA Binding: RLU is 9050 RLU.

What about the Trimeric HA Binding: RLU [4] of the same binder?
The Trimeric HA Binding: RLU was 51 RLU.

B2: TCN-563 (5237_B21) (antibody, V domains shown)
VH: QVQLAQSGAEVKRPGSSVKVSCTASGGIFRKNAISWVRQAPGQGLEWMGGIIAVFNTANYAQKFQGRVKITADESGNTAYMELSSLRSDDTAVYYCASHPKYFYGSGSYPDFWGQGTLVTVSS
VL: QSALTQPRSVSGSPGQSVTISCTGSSSDVGASNSVSWYQQHPGKAPKLVIYDVTERPSGVPHRFSGSKSGNTASLTVSGLQPEDEADYFCCAYGGKYLVVFGGGTKVTVL
For B2, which Trimeric HA Binding: RLU [5] is on record?
Its Trimeric HA Binding: RLU is 7520 RLU.

And the Trimeric HA Binding: RLU [6]?
Its Trimeric HA Binding: RLU is 25900 RLU.

And the Trimeric HA Binding: RLU [7]?
Its Trimeric HA Binding: RLU is 21600 RLU.

And the Trimeric HA Binding: RLU [8]?
The Trimeric HA Binding: RLU was 1690 RLU.

And the Trimeric HA Binding: RLU [9]?
Its Trimeric HA Binding: RLU is 16300 RLU.

What about the Trimeric HA Binding: RLU [10] of the same binder?
The Trimeric HA Binding: RLU was 27700 RLU.

And the Trimeric HA Binding: RLU [11]?
Its Trimeric HA Binding: RLU is 314 RLU.

And the Trimeric HA Binding: RLU [12]?
Its Trimeric HA Binding: RLU is 327 RLU.

What about the Trimeric HA Binding: RLU [13] of the same binder?
Its Trimeric HA Binding: RLU is 21400 RLU.

What about the Trimeric HA Binding: RLU [14] of the same binder?
The Trimeric HA Binding: RLU was 376 RLU.

B3: TCN-504 (3251_K17) (antibody, V domains shown)
VH: QVQLQESGPGLVKPSETLSLTCAVSGVSISNIDFYWGWIRQPPGKGLEWIGNIYYTGITFYNPSLSSRVAISIDTSKNQFSLTLTSVTAADTAMYYCARHYGDSEAINDAFDIWGQGTMLTVSS
VL: EIVMTQSPATLSVSPGERATLSCRASQSVGNSLAWYQQRPGQAPRLLIYGASTRATGIPPRFSGSGSGTEFTLTISSLQTEDFAVYYCQQYINWRPLSFGGGTKVEIK
Which results are given for B3?
Trimeric HA Binding: RLU [15]: 14300 RLU; Trimeric HA Binding: RLU [16]: 28900 RLU; Trimeric HA Binding: RLU [17]: 26500 RLU
